The values that follow come from patent US20030084466A1, “System and method for controlling male fertility” (priority 2000, published 2003).

The test system of this assay is Akt. Kind of assay: SCF-induced Akt activation (Akt in vitro kinase assay, histone H2B substrate) in primary bone marrow-derived mast cells. It counts as cell-based, mouse.

B1: SCF: murine stem cell factor (R & D Systems, Inc.), bivalent ligand of the Kit receptor (protein)
chain: KEICGNPVTDNVKDITKLVANLPNDYMITLNYVAGMDVLPSHCWLRDMVIQLSLSLTTLLDKFSNISEGLSNYSIIDKLGKIVDDLVLCMEENAPKNIKESPKRPETRSFTPEEFFSIFNRSIDAFKDFMVASDTSDCVLSSTLGPEKDSRVSVTKPFMLPPVA
B1 displayed an Akt activation (+/+ and loxP/loxP mast cells, 100 ng/ml murine SCF, 8 minutes, 37° C.) of 5 fold. Further, where the note is “Y719F/Y719F mast cells, SCF stimulation”, the “Akt activation relative to wild type levels” value was found to be 12%.
